Results from patent US7842460.

T1: Ubiquitin-PLA2mX fusion, Q9QXX3
T1 chain: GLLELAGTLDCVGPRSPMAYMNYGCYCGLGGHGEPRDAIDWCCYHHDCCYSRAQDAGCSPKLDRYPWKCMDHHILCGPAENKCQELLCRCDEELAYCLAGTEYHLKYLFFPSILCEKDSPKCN

T2: (yeast SUMO) Smt3-PLA2mX fusion, Q9QXX3
T2 chain: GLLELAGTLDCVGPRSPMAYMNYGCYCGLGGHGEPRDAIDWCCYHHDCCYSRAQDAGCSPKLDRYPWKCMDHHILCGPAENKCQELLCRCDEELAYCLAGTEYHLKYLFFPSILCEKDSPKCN

T3: SUMO-GPATase fusion protein from pET24-6H-SUMO-GPATase, P0AG16
T3 chain: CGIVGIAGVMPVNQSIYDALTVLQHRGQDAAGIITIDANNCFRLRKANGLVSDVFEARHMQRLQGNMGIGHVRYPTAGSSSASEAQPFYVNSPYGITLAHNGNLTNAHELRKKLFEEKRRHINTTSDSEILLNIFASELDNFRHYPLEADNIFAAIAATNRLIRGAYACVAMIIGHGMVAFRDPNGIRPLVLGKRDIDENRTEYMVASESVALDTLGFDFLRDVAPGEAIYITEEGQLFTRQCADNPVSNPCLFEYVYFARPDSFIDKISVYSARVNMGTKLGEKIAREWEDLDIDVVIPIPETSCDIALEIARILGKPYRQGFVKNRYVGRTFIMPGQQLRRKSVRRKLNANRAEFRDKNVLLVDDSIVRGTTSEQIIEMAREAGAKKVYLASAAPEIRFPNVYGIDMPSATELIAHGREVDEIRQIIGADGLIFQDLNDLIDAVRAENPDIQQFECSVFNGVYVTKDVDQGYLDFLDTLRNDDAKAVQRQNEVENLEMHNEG

T4: Smt3-3Dpol (Mahoney strain) fusion from pET24-6H-SUMO-3Dpol, P03300
T4 chain: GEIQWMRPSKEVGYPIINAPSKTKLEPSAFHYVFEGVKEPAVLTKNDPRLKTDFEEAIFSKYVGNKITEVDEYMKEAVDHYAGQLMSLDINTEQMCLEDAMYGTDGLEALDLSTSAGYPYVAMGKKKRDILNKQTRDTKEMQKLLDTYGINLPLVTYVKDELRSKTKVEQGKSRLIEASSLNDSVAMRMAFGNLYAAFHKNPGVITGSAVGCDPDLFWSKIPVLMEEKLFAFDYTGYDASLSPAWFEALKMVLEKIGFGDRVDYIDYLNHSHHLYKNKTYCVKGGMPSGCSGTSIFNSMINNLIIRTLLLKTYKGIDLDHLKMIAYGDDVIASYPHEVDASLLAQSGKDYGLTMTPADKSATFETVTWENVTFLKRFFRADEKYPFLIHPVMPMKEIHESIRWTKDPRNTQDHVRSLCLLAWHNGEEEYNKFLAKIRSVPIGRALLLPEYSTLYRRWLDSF


Columns and labels:
[1] = molecular target: human Nedd8-PLA2mX fusion, Q15843
[2] = molecular target: T1, Ubiquitin-PLA2mX fusion, Q9QXX3
[3] = molecular target: human SUMO3-PLA2mX fusion, P55854
[4] = molecular target: T2, (yeast SUMO) Smt3-PLA2mX fusion, Q9QXX3
[5] = molecular target: T3, SUMO-GPATase fusion protein from …
[6] = molecular target: T4, Smt3-3Dpol (Mahoney strain) fusion from …
[7] = molecular target: Smt3-tryptase (6xHis-SUMO-human tryptase fusion, secreted from Sf9 insect cells) [SUMO: Q12306]
Chain of Smt3-tryptase (6xHis-SUMO-human tryptase fusion, secreted from Sf9 insect cells) [SUMO: Q12306] (Q12306 whole entry, looked up, the tested form may be a part): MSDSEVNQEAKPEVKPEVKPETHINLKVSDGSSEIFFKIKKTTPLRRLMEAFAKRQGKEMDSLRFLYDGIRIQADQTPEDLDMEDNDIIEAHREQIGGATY

Chain of human Nedd8-PLA2mX fusion, Q15843 (Q15843 whole entry, looked up, the tested form may be a part): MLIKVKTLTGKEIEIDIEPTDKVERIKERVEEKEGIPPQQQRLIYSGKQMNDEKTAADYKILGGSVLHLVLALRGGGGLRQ

Protein | Ratio of PLA2 activity, fusion with isopeptidase over fusion without [1] | cleavage of the fusion by SDS-PAGE [1] | cleavage of the fusion by SDS-PAGE [2] | Ratio of PLA2 activity, fusion with isopeptidase over fusion without [3] | cleavage of the fusion by SDS-PAGE (10 ug fusion, 1 ug SENP2) [3] | Ratio of PLA2 activity, fusion with isopeptidase over fusion without [4] | cleavage of the fusion by SDS-PAGE (10 ug fusion, 1 ug Ulp-1, one hour) [4] | GPATase activity by coupled glutamate dehydrogenase assay, absorbance at 363 nm [5] | glutaminase activity of GPATase (coupled GDH assay) [5] | cleavage of the fusion by SDS-PAGE and Coomassie Blue staining [6] | tryptase activity, peptidyl chromogenic substrate, absorption at 410 nm [7]
Den1, a Nedd8-specific isopeptidase (protein) MDPVVLSYMDSLLRQSDVSLLDPPSWLNDHIIGFAFEYFANSQFHDCSDHVSFISPEVTQFIKCTSNPAEIAMFLEPLDLPNKRVVFLAINDNSNQAAGGTHWSLLVYLQDKNSFFHYDSHSRSNSVHAKQVAEKLEAFLGRKGDKLAFVEEKAPAQQNSYDCGMYVICNTEALCQNFFRQQTESLLQLLTPAYITKKRGEWKDLITTLAKK | 3.38 | the Nedd8-fusion protein became cleaved and 14 kDa PLA2mX and 9 kDa Nedd8 bands appear |  |  |  |  |  |  |  |  | 
SENP2 isopeptidase (protein) DLLELTEDMEKEISNALGHGPQDEILSSAFKLRITRGDIQTLKNYHWLNDEVINFYMNLLVERNKKQGYPALHVFSTFFYPKLKSGGYQAVKRWTKGVNLFEQEIILVPIHRKVHWSLVVIDLRKKCLKYLDSMGQKGHRICEILLQYLQDESKTKRNSDLNLLEWTHHSMKPHEIPQQLNGSDCGMFTCKYADYISRDKPITFTQHQMPLFRKKMVWEILHQQLL |  |  | The SENP2 enzyme failed to cleave the Ubiqutin-PLA2mX fusion protein | 9.95 | the appropriately sized hSUMO3 (21 kDa) and PLA2mX (14 kDa) bands were observed, indicating complete cleavage of the fusion protein |  |  |  |  |  | 
C-terminal His-tagged SUMO protease 1, ULP1 (403-621)p (protein) LVPELNEKDDDQVQKALASRENTQLMNRDNIEITVRDFKTLAPRRWLNDTIIEFFMKYIEKSTPNTVAFNSFFYTNLSERGYQGVRRWMKRKKTQIDKLDKIFTPINLNQSHWALGIIDLKKKTIGYVDSLSNGPNAMSFAILTDLQKYVMEESKHTIGEDFDLIHLDCPQQPNGYDCGIYVCMNTLYGSADAPLDFDYKDAIRMRRFIAHLILTDALK |  |  | The yeast ULP1 enzyme failed to cleave the Ubiquitin-PLA2mX fusion protein |  |  | 7.04 | complete cleavage of the reporter fusion protein to yield the separate constituents, Smt3 (at 21 kDa) and 14 kDa PLA2mX | there was an increase is absorbance at the OD 363 reading ... In the absence of Ulp1, this increase of absorbance did not occur | at least a 10-fold increase in the glutaminase activity of GPATase | resulted in 100% of cleavage of 3Dpol | augmented tryptase activity was measured
